Patent publication US20180258140A1, “NEW DODECAPEPTIDES AND MICROCAPSULES FUNCTIONALISED WITH THEM TARGETED TO FIBROBLASTS” (Infinitec Activos, S.L., priority 2015, published 2018)
*: point of attachment. Palmitoyl = CCCCCCCCCCCCCCCC(=O)*

How the values were obtained:
FGFR2 Kinase = FGFR2 Kinase (Homo sapiens, UniProt P21802); experiment: FGFR2 kinase inhibition; type: biochemical; conditions: percent inhibition of control enzyme activity; test concentration not given
Method: [The source words this procedure for another target and reports this target under the same test.] Evaluation of the effects of the dodecapeptides of the invention on the activity of the human FGFR1 kinase were quantified by measuring the phosphorylation of the substrate Ulight-CAGAGAIETDKEYYTVKD (JAK1) using a human recombinant enzyme expressed in insect cells and the LANCE® detection method using the protocol described below:
The peptide to be tested, the reference compound or water (control) are mixed with the enzyme (0.252 ng) in a buffer containing 40 mM Hepes/Tris (pH 7.4), 0.8 mM EGTA/Tris, 8 mM MgCl2, 1.6 mM DTT and 0.008% Tween 20 (For control basal measurements, the enzyme is omitted from the reaction mixture). Thereafter, the reaction is initiated by adding 100 nM of the substrate Ulight-CAGAGAIETDKEYYTVKD (SEQ ID NO: 13) (JAK-1 peptide) and 100 μM ATP, and the mixture is incubated for 60 min at room temperature. Following incubation, the reaction is stopped by adding 13 mM EDTA. After 5 min, the anti-phospho-PT66 antibody labeled with europium chelate (EU-W1024-labeled Anti-Phosphotyrosine Antibody PT66, from Perkin Elmer) is added. After 60 more min, the fluorescence transfer is measured at λex=337 nm, λem=620 nm and λem=665 nm using a microplate reader (Envision, Perkin Elmer).
The enzyme activity is determined by dividing the signal measured at 665 nm by that measured at 620 nm (ratio). The results are expressed as a percent inhibition of the control enzyme activity.
The standard inhibitory reference compound is staurosporine, which is tested in each experiment at several concentrations to obtain an inhibition curve from which its IC50 value is calculated.
Results showing an inhibition (or stimulation for assays run in basal conditions) higher than 20% are considered to represent significant effects of the peptides of the invention.

FGFR3 Kinase = FGFR3 Kinase (UniProt P22607 436-806); experiment: cell-based or functional assay
human FGFR1 kinase = human FGFR1 kinase (human, UniProt P11362 398-822, limits assumed); experiment: cell-based or functional assay
FGFR4 Kinase = FGFR4 Kinase (UniProt P22455 460-802, limits assumed); experiment: cell-based or functional assay
FGFR4 Kinase, sequence (P22455 460-802 limits assumed): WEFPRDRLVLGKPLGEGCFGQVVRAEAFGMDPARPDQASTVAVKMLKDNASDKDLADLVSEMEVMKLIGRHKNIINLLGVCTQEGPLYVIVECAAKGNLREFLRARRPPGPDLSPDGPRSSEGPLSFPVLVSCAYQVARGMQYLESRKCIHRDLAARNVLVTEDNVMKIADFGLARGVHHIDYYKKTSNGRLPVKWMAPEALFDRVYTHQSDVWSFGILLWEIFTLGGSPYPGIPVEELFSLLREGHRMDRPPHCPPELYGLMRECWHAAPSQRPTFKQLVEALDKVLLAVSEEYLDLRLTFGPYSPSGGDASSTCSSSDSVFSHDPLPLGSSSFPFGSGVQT

FGFR3 Kinase, sequence (P22607 436-806 limits assumed): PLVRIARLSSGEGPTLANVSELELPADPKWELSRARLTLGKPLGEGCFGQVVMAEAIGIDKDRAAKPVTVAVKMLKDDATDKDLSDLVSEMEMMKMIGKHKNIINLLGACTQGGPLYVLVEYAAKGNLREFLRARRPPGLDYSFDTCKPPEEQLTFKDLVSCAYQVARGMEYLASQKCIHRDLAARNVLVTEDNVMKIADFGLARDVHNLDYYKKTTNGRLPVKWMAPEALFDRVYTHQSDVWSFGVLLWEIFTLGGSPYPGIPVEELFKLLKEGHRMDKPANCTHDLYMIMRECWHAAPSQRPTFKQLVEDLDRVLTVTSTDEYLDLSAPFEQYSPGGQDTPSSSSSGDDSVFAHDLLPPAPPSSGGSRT
human FGFR1 kinase, sequence (P11362 398-822 limits assumed): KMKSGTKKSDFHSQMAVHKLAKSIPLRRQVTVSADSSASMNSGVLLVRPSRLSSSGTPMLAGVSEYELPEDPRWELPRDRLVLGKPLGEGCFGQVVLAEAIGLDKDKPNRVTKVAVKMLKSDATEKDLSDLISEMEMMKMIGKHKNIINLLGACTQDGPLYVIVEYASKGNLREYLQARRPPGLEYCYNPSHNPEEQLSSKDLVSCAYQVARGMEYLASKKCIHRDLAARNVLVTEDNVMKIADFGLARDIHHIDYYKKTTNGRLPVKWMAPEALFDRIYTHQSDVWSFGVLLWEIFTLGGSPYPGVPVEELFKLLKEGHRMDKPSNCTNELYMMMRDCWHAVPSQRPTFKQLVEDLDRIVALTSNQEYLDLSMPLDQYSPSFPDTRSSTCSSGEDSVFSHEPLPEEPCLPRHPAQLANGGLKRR
FGFR2 Kinase, sequence (P21802 22-821): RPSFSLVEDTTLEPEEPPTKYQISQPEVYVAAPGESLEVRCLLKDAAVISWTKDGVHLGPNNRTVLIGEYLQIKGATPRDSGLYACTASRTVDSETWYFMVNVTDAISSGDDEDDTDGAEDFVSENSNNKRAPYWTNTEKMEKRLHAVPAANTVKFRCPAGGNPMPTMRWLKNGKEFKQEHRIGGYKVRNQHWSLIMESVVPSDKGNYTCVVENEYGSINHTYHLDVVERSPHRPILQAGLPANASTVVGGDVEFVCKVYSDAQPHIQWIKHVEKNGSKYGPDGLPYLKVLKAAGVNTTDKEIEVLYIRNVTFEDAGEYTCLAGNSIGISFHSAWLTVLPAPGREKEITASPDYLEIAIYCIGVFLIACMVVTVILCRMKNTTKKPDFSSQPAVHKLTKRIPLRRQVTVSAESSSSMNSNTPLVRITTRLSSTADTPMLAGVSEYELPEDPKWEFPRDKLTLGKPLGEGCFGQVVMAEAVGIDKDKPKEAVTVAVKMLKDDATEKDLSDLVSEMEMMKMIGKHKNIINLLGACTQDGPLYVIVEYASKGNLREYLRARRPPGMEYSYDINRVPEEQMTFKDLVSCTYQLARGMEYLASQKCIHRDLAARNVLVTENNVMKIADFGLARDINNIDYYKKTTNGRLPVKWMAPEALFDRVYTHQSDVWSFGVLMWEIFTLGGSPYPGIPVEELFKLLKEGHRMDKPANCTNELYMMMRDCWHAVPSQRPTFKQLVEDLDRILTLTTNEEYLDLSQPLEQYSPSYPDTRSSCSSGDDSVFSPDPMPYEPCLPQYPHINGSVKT

Molecule	FGFR2 Kinase % Inhibition (FGFR2 Kinase) [%]	FGFR3 Kinase % Inhibition (FGFR3 Kinase) [%]	FGFR1 Kinase % Inhibition (human FGFR1 kinase) [%]	FGFR4 Kinase % Inhibition (FGFR4 Kinase) [%]
Palm-Lys-Phe-Ala-Leu-Pro-Leu-Gly-Asn-Tyr-Lys-Lys-Pro-NH2 (Palmitoyl-KFALPLGNYKKP-NH2; SMILES CCCCCCCCCCCCCCCC(=O)N[C@@H](CCCCN)C(=O)N[C@@H](Cc1ccccc1)C(=O)N[C@@H](C)C(=O)N[C@@H](CC(C)C)C(=O)N1CCC[C@H]1C(=O)N[C@@H](CC(C)C)C(=O)NCC(=O)N[C@@H](CC(N)=O)C(=O)N[C@@H](Cc1ccc(O)cc1)C(=O)N[C@@H](CCCCN)C(=O)N[C@@H](CCCCN)C(=O)N1CCC[C@H]1C(N)=O) [Peptide 3]	98.7			
Palm-Lys-Phe-Asn-Leu-Pro-Leu-Gly-Asn-Tyr-Lys-Lys-Ala-NH2 (Palmitoyl-KFNLPLGNYKKA-NH2; SMILES CCCCCCCCCCCCCCCC(=O)N[C@@H](CCCCN)C(=O)N[C@@H](Cc1ccccc1)C(=O)N[C@@H](CC(N)=O)C(=O)N[C@@H](CC(C)C)C(=O)N1CCC[C@H]1C(=O)N[C@@H](CC(C)C)C(=O)NCC(=O)N[C@@H](CC(N)=O)C(=O)N[C@@H](Cc1ccc(O)cc1)C(=O)N[C@@H](CCCCN)C(=O)N[C@@H](CCCCN)C(=O)N[C@@H](C)C(N)=O) [Peptide 12]	90.1			
Palmitoyl-KFNAPLGNYKKP-NH2 (SMILES CCCCCCCCCCCCCCCC(=O)N[C@@H](CCCCN)C(=O)N[C@@H](Cc1ccccc1)C(=O)N[C@@H](CC(N)=O)C(=O)N[C@@H](C)C(=O)N1CCC[C@H]1C(=O)N[C@@H](CC(C)C)C(=O)NCC(=O)N[C@@H](CC(N)=O)C(=O)N[C@@H](Cc1ccc(O)cc1)C(=O)N[C@@H](CCCCN)C(=O)N[C@@H](CCCCN)C(=O)N1CCC[C@H]1C(N)=O) [Peptide 4: Palm-Lys-Phe-Asn-Ala-Pro-Leu-Gly-Asn-Tyr-Lys-Lys-Pro-NH2]		60.8	0	0
Palmitoyl-KANLPLGNYKKP-NH2 (SMILES CCCCCCCCCCCCCCCC(=O)N[C@@H](CCCCN)C(=O)N[C@@H](C)C(=O)N[C@@H](CC(N)=O)C(=O)N[C@@H](CC(C)C)C(=O)N1CCC[C@H]1C(=O)N[C@@H](CC(C)C)C(=O)NCC(=O)N[C@@H](CC(N)=O)C(=O)N[C@@H](Cc1ccc(O)cc1)C(=O)N[C@@H](CCCCN)C(=O)N[C@@H](CCCCN)C(=O)N1CCC[C@H]1C(N)=O) [Peptide 2: Palm-Lys-Ala-Asn-Leu-Pro-Leu-Gly-Asn-Tyr-Lys-Lys-Pro-NH2]		38.8	0	96.4
Palmitoyl-KFNLALGNYKKP-NH2 (SMILES CCCCCCCCCCCCCCCC(=O)N[C@@H](CCCCN)C(=O)N[C@@H](Cc1ccccc1)C(=O)N[C@@H](CC(N)=O)C(=O)N[C@@H](CC(C)C)C(=O)N[C@@H](C)C(=O)N[C@@H](CC(C)C)C(=O)NCC(=O)N[C@@H](CC(N)=O)C(=O)N[C@@H](Cc1ccc(O)cc1)C(=O)N[C@@H](CCCCN)C(=O)N[C@@H](CCCCN)C(=O)N1CCC[C@H]1C(N)=O) [Peptide 5: Palm-Lys-Phe-Asn-Leu-Ala-Leu-Gly-Asn-Tyr-Lys-Lys-Pro-NH2]		49.6	0	0
Palmitoyl-KFNLPLGNYKKA-NH2 (SMILES CCCCCCCCCCCCCCCC(=O)N[C@@H](CCCCN)C(=O)N[C@@H](Cc1ccccc1)C(=O)N[C@@H](CC(N)=O)C(=O)N[C@@H](CC(C)C)C(=O)N1CCC[C@H]1C(=O)N[C@@H](CC(C)C)C(=O)NCC(=O)N[C@@H](CC(N)=O)C(=O)N[C@@H](Cc1ccc(O)cc1)C(=O)N[C@@H](CCCCN)C(=O)N[C@@H](CCCCN)C(=O)N[C@@H](C)C(N)=O) [Peptide 12: Palm-Lys-Phe-Asn-Leu-Pro-Leu-Gly-Asn-Tyr-Lys-Lys-Ala-NH2]		46.4	0	42.3
Palmitoyl-KFNLPLGNYKKP-NH2 (SMILES CCCCCCCCCCCCCCCC(=O)N[C@@H](CCCCN)C(=O)N[C@@H](Cc1ccccc1)C(=O)N[C@@H](CC(N)=O)C(=O)N[C@@H](CC(C)C)C(=O)N1CCC[C@H]1C(=O)N[C@@H](CC(C)C)C(=O)NCC(=O)N[C@@H](CC(N)=O)C(=O)N[C@@H](Cc1ccc(O)cc1)C(=O)N[C@@H](CCCCN)C(=O)N[C@@H](CCCCN)C(=O)N1CCC[C@H]1C(N)=O) [Peptide 1: Palm-Lys-Phe-Asn-Leu-Pro-Leu-Gly-Asn-Tyr-Lys-Lys-Pro-NH2]		75.8	0	38.7
Palmitoyl-KFNLPLGNYAKP-NH2 (SMILES CCCCCCCCCCCCCCCC(=O)N[C@@H](CCCCN)C(=O)N[C@@H](Cc1ccccc1)C(=O)N[C@@H](CC(N)=O)C(=O)N[C@@H](CC(C)C)C(=O)N1CCC[C@H]1C(=O)N[C@@H](CC(C)C)C(=O)NCC(=O)N[C@@H](CC(N)=O)C(=O)N[C@@H](Cc1ccc(O)cc1)C(=O)N[C@@H](C)C(=O)N[C@@H](CCCCN)C(=O)N1CCC[C@H]1C(N)=O) [Peptide 10: Palm-Lys-Phe-Asn-Leu-Pro-Leu-Gly-Asn-Tyr-Ala-Lys-Pro-NH2]		0	0	0
Palmitoyl-KFNLPAGNYKKP-NH2 (SMILES CCCCCCCCCCCCCCCC(=O)N[C@@H](CCCCN)C(=O)N[C@@H](Cc1ccccc1)C(=O)N[C@@H](CC(N)=O)C(=O)N[C@@H](CC(C)C)C(=O)N1CCC[C@H]1C(=O)N[C@@H](C)C(=O)NCC(=O)N[C@@H](CC(N)=O)C(=O)N[C@@H](Cc1ccc(O)cc1)C(=O)N[C@@H](CCCCN)C(=O)N[C@@H](CCCCN)C(=O)N1CCC[C@H]1C(N)=O) [Peptide 6: Palm-Lys-Phe-Asn-Leu-Pro-Ala-Gly-Asn-Tyr-Lys-Lys-Pro-NH2]		78.5	92.7	69.8
Palmitoyl-KFNLPLANYKKP-NH2 (SMILES CCCCCCCCCCCCCCCC(=O)N[C@@H](CCCCN)C(=O)N[C@@H](Cc1ccccc1)C(=O)N[C@@H](CC(N)=O)C(=O)N[C@@H](CC(C)C)C(=O)N1CCC[C@H]1C(=O)N[C@@H](CC(C)C)C(=O)N[C@@H](C)C(=O)N[C@@H](CC(N)=O)C(=O)N[C@@H](Cc1ccc(O)cc1)C(=O)N[C@@H](CCCCN)C(=O)N[C@@H](CCCCN)C(=O)N1CCC[C@H]1C(N)=O) [Peptide 7: Palm-Lys-Phe-Asn-Leu-Pro-Leu-Ala-Asn-Tyr-Lys-Lys-Pro-NH2]		72.9	0	67.9
Palmitoyl-KFNLPLGNAKKP-NH2 (SMILES CCCCCCCCCCCCCCCC(=O)N[C@@H](CCCCN)C(=O)N[C@@H](Cc1ccccc1)C(=O)N[C@@H](CC(N)=O)C(=O)N[C@@H](CC(C)C)C(=O)N1CCC[C@H]1C(=O)N[C@@H](CC(C)C)C(=O)NCC(=O)N[C@@H](CC(N)=O)C(=O)N[C@@H](C)C(=O)N[C@@H](CCCCN)C(=O)N[C@@H](CCCCN)C(=O)N1CCC[C@H]1C(N)=O) [Peptide 9: Palm-Lys-Phe-Asn-Leu-Pro-Leu-Gly-Asn-Ala-Lys-Lys-Pro-NH2]		91.6	15.7	92.5
Palmitoyl-KFNLPLGNYKAP-NH2 (SMILES CCCCCCCCCCCCCCCC(=O)N[C@@H](CCCCN)C(=O)N[C@@H](Cc1ccccc1)C(=O)N[C@@H](CC(N)=O)C(=O)N[C@@H](CC(C)C)C(=O)N1CCC[C@H]1C(=O)N[C@@H](CC(C)C)C(=O)NCC(=O)N[C@@H](CC(N)=O)C(=O)N[C@@H](Cc1ccc(O)cc1)C(=O)N[C@@H](CCCCN)C(=O)N[C@@H](C)C(=O)N1CCC[C@H]1C(N)=O) [Peptide 11: Palm-Lys-Phe-Asn-Leu-Pro-Leu-Gly-Asn-Tyr-Lys-Ala-Pro-NH2]		19.3	0	0
Palmitoyl-KFALPLGNYKKP-NH2 (SMILES CCCCCCCCCCCCCCCC(=O)N[C@@H](CCCCN)C(=O)N[C@@H](Cc1ccccc1)C(=O)N[C@@H](C)C(=O)N[C@@H](CC(C)C)C(=O)N1CCC[C@H]1C(=O)N[C@@H](CC(C)C)C(=O)NCC(=O)N[C@@H](CC(N)=O)C(=O)N[C@@H](Cc1ccc(O)cc1)C(=O)N[C@@H](CCCCN)C(=O)N[C@@H](CCCCN)C(=O)N1CCC[C@H]1C(N)=O) [Peptide 3: Palm-Lys-Phe-Ala-Leu-Pro-Leu-Gly-Asn-Tyr-Lys-Lys-Pro-NH2]		91.9	85	65.9
Palmitoyl-KFNLPLGAYKKP-NH2 (SMILES CCCCCCCCCCCCCCCC(=O)N[C@@H](CCCCN)C(=O)N[C@@H](Cc1ccccc1)C(=O)N[C@@H](CC(N)=O)C(=O)N[C@@H](CC(C)C)C(=O)N1CCC[C@H]1C(=O)N[C@@H](CC(C)C)C(=O)NCC(=O)N[C@@H](C)C(=O)N[C@@H](Cc1ccc(O)cc1)C(=O)N[C@@H](CCCCN)C(=O)N[C@@H](CCCCN)C(=O)N1CCC[C@H]1C(N)=O) [Peptide 8: Palm-Lys-Phe-Asn-Leu-Pro-Leu-Gly-Ala-Tyr-Lys-Lys-Pro-NH2]		87.9	0	89.5
